Reference: EP3758732B1 (Leidos, Inc., dated 2024)

Experiments:
[1] = molecular target: human PD-1 on Jurkat cells (human, UniProt Q15116 25-288); assay: cell-based or functional assay
[2] = molecular target: T1, soluble recombinant human PD-1 receptor (human, UniProt Q15116 25-167, limits assumed); assay: clonal phage ELISA, peptide on phage, wells coated with PD-1
T1 construct: also called human PD-1 receptors
T1 sequence (Q15116 25-167 limits assumed): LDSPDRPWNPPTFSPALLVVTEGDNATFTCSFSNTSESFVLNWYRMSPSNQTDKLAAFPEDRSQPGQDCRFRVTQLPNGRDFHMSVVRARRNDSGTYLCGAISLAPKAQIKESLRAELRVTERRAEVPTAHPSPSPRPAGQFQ

human PD-1 on Jurkat cells, sequence (Q15116 25-288): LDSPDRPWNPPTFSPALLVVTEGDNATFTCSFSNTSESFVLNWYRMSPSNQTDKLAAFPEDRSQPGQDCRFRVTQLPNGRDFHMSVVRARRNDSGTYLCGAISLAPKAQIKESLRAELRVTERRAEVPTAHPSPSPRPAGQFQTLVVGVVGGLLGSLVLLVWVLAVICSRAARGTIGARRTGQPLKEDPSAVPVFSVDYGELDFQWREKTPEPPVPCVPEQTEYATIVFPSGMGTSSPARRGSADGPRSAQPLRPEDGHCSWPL

Binder	peak-fold inhibition (luciferase reporter) [1] [fold]	coated signal [2]
WNLPASFHNHHIRPHEHEWIQ (also called WQ-21; peptide WQ20) [WQ20]	~1.5	0.275
SSYHHFKMPELHFGKNTFHQ (Found by phage display; also called peptide SQ20) [SQ20]	~1.5	0.284
QTRTVPMPKIHHPPWQNVVP (Found by phage display; also called peptide QP20) [QP20]	~1.5	0.851
HHHQVYQVRSHWTGMHSGHD (Found by phage display; also called peptide HD20) [HD20]	~1.5	0.281
